Patent US7432308B2, “Therapeutic compositions for the treatment of a respiratory tract disease” (Universiteit Gent, priority 2001, dated 2008)
Each block holds one molecule with its values, some of them ahead of it.

Legend:
actin = conditions: Shu et al.; cited from earlier work
[1] = system: DNA (salmon sperm DNA from Sigma); assay: Effect of K+ and Mg2+ on DNAse activity: decrease in viscosity of a standardised DNA digest (capillary viscosimeter); format: biochemical
Method: The viscosity of DNA and DNA/actin solutions was measured with a calibrated capillary viscosimeter (Schott Geräte, Hofheim, Germany) equipped with an automated apparatus (Lauda, Köningshofen, Germany). The capillary viscosimeter was placed in a water bath (20.00° C.±0.05° C.) and the outflow times (t in s) were determined automatically. The viscosity (η) of the solutions is related to t by: [formula] where k and B are known constants. The effect of Mg^2+ and K^+ ions on the activity of DNAse (measured as decrease in viscosity) was determined by changing the Mg^2+ and K^+ concentration in a standardised DNA digest. DNA (salmon sperm DNA from Sigma) was digested (10 μ[…], 2,3 mg/ml DNA, 70 mM NaCl, and 3 mM CaCl2, pH 7.0) in order to determine the change in viscosity of the DNA solution.

[2] = system: DNA in the presence of rabbit skeletal actin; assay: Influence of actin polymerisation on DNAse activity: decrease in viscosity of DNA/actin solutions; format: biochemical
Method: The viscosity of DNA and DNA/actin solutions was measured with a calibrated capillary viscosimeter (Schott Geräte, Hofheim, Germany) equipped with an automated apparatus (Lauda, Köningshofen, Germany). The capillary viscosimeter was placed in a water bath (20.00° C.±0.05° C.) and the outflow times (t in s) were determined automatically. The viscosity (η) of the solutions is related to t by: […] Biol. Chem. (1971) 246: 4866-4871) (6,4 μg/ml […], 1.5 mg DNA/ml and 1.1 mg actin/ml 70 mM NaCl, 3 mM CaCl2, 0.35 mM ATP, 3.2 mM TRIS/HCl, 0.13 mM DTT, and 0.006% NaN3, pH 7,0). K^+ and Mg^2+ were supplied as K2HPO4 and MgCl2 respectively.

[3] = DNA/actin solution 1: K+ 14.0 mM, Mg2+ 0.90 mM
[4] = DNA/actin solution 2: K+ 26.0 mM, Mg2+ 0.90 mM
[5] = DNA/actin solution 3: K+ 26.0 mM, Mg2+ 2.70 mM

Molecule: O=P([O-])([O-])O.[K+].[K+] [K+, potassium hydrogenophosphate]
concentration giving maximal actin polymerisation (actin): 200 mM

Molecule: [Cl-].[Cl-].[Mg+2] [Mg^2+, magnesium chloride]
concentration giving maximal actin polymerisation (actin): 2 mM

η at t = 10 minutes ([1]; DNA solution 1: K+ 14.0 mM, Mg2+ 1.65 mM, η 31.5 at t = 0): 1.1 mm^2/s
η at t = 10 minutes ([1]; DNA solution 2: K+ 26.0 mM, Mg2+ 1.65 mM, η 31.5 at t = 0): 1.1 mm^2/s
η at t = 10 minutes ([1]; DNA solution 3: K+ 20.0 mM, Mg2+ 0.90 mM, η 33.9 at t = 0): 1.1 mm^2/s
η at t = 10 minutes ([1]; DNA solution 4: K+ 20.0 mM, Mg2+ 2.70 mM, η 33.9 at t = 0): 1.1 mm^2/s
η at t = 20 min [2, 3]: 9.4 mm2/s
η at t = 30 min [2, 3]: 8.6 mm2/s
η at t = 10 min ([2]; DNA/actin solution 1: K+ 14.0 mM, Mg2+ 0.90 mM, η 14.3 at t = 0): 9.8 mm2/s
η at t = 30 min [2, 4]: 7.7 mm2/s
η at t = 10 min [2, 5]: 6.1 mm2/s
η at t = 20 min [2, 5]: 5.8 mm2/s
η at t = 30 min [2, 5]: 5.5 mm2/s
B1: rhDNAse I: Recombinant human DNAse I, commercially available under the trade name Pulmozyme, also designated dornase alpha (protein, UniProt P24855 23-282, looked up)
Deoxyribonuclease-1: LKIAAFNIQTFGETKMSNATLVSYIVQILSRYDIALVQEVRDSHLTAVGKLLDNLNQDAPDTYHYVVSEPLGRNSYKERYLFVYRPDQVSAVDSYYYDDGCEPCGNDTFNREPAIVRFFSRFTEVREFAIVPLHAAPGDAVAEIDALYDVYLDVQEKWGLEDVMLMGDFNAGCSYVRPSQWSSIRLWTSPTFQWLIPDSADTTATPTHCAYDRIVVAGMLLRGAVVPDSALPFNFQAAYGLSDQLAQAISDHYPVEVMLK
modifications: dornase alfa
notes: Recombinant human DNAse I, commercially available under the trade name Pulmozyme, also designated dornase alpha
decrease in viscosity at t = 10 minutes ([1]; DNA solution 1: K+ 14.0 mM, Mg2+ 1.65 mM): 97%
decrease in viscosity at t = 10 minutes ([1]; DNA solution 2: K+ 26.0 mM, Mg2+ 1.65 mM): 97%
decrease in viscosity at t = 10 minutes ([1]; DNA solution 3: K+ 20.0 mM, Mg2+ 0.90 mM): 97%
decrease in viscosity at t = 10 minutes ([1]; DNA solution 4: K+ 20.0 mM, Mg2+ 2.70 mM): 97%
viscosity η of the DNA solution after digestion ([1]; all tested K+ and Mg2+ concentrations, value is near the viscosity of water): ~1 mm^2/s
decrease in viscosity at t = 10 min [2, 3]: 32%
decrease in viscosity at t = 20 min [2, 3]: 34%
decrease in viscosity at t = 30 min [2, 3]: 40%
decrease in viscosity at t = 30 min [2, 4]: 46%
decrease in viscosity at t = 10 min [2, 5]: 58%
decrease in viscosity at t = 20 min [2, 5]: 59%
decrease in viscosity at t = 30 min [2, 5]: 61%
DNAse activity in DNA/actin solutions ([2]; at high levels of Mg^2+ and K^+): highest
